In the DeepSol protein solubility set:

Assay: soluble on expression in E. coli; label from the status in PepcDB or PDB records

Sequence	soluble on expression in E. coli
MALLTKVTWNNIGMHQPQTNWYKGVWFPYSTPKYSFLLWLTIQNRLSTGDHIKAWNSGQQVTCTLCGNAEETRNLLFFSCHYTSEVWRTLTQRLLSNDYSRDWNRLLPLLCNTNMPTDLLFLFRYVFQASVYHIWRERNARRHGEISSPPNRLIKFIDKNVRNRINSIRDTGDHNYNACLQLWFSTRPLSSTHSL	soluble
MTSQRCRRRYFMMIRERIEEKLRAAFQPVFLEVVDESYRHNVPAGSESHFKVVLVSDRFTGERFLNRHRMIYSTLAEELSTTVHALALHTYTIKEWEGLQDTVFASPPCRGAGSIALEHHHHHH	not soluble
MSKTRIAFVGAGNMAASLIGGLRAQGVEASLICASAPGAETRERISTEHGIEVFADNAEAVKGADVVVLAVKPQMMKSVCQALKASLEAHQLIVSVAAGITCASLTQWLGDQPVVRCMPNTPSLLRQGASGLYATDKVSPTQREQAEQLLSAVGVAVWVEQEKHMDAVTAVSGSGPAYFFLMMEAMTAAGVKLGLPEDIAKKLTLQTALGSALIATGSNVDAGELRRRVASPGGTTEAAIKAFQAGGFEALVETALTAADHRAAELAEQLGKLEHHHHHH	not soluble
MNHTLQFPKAPEHLLQALNEVIPKCKLMAQQLPETAISLWLIPPVFPTERLDDDIIRRIWSDTPYWIFCWASGLAMAQWLLAEPHHVKDKVVLDFGAGSGVVAIAAKMAGAKRVICCDIDETSLNACRENALLNNVELEYLNDLYLSESVDILLAADVLYDQSNRFFLDEFLKFAPEVWVADSRVKNFSHPGYIKIDERSATTWPDLDEAKEFRNVSFYKTLEHHHHHH	not soluble
MLADKESLIEALKLALSTEYNVKRNFTQSVEIILTFKGIDMKKGDLKLREIVPLPKQPSKAKRVLVVPSSEQLEYAKKASPKVVITREELQKLQGQKRPVKKLARQNEWFLINQESMALAGRILGPALGPRGKFPTPLPNTADISEYINRFKRSVLVKTKDQPQVQVFIGTEDMKPEDLAENAIAVLNAIENKAKVETNLRNIYVKTTMGKAVKVKR	soluble
SSDKDDIETPLLTEAAPILEDGNCEPAKNSESVDQGAKPESKSEPVVSTRKRPETKPSSDLETSKVLPIQDNVSKDVPQTRWGYWGSWGKSILSSASATVATVGQGISNVIEKAETSLGIPSPSEISTEVKYVAGETNAKENENSSPVAGAFGVFSTISTAVQSTGKSVISGGLDALEFIGKKTMDVIAEGDPGFKRTKGLMNRNATLSQVLREAKEKEEIRTSNEVTVETDKKTHYGLLFDEFQGLSHLEALEMLSQESEIKVKSILNSLSGEELETLKVELEQLKETFSLAEFCEEEEEEKKGDEDFTKDITELFSQLHVSSKPEKLARARNTAHEWIRKSLTKPLAENEEGEKQSEAENTEQVNKNSIEDIHAFAIRSLAELTACSIELFHKTAALVLHGRKQEVTAIERSQTLSQMTIVLCKELSSLSKEFTTCLTTAGVKEMADVLNPLITAVFLEASNSASYIQDAFQLLLPVLEISLIENKIESHRHELQGQKPLLEH	soluble
MSALASKLFAKCAAGGRALQSQAVRQFSAYPIDDSMFGLNDEEIALRQSIRQFADKELAPYADKIDKDNGWDQLRPFWKKLGDQGLLGITAPAEYGGSGMNYFSHVIAMEELSRAAGGIALSYGAHSNLCINQIVRNGSEEQRKKYLPKLISGEHMGALAMSEAQAGSDVVSMKLRAEKKGDKYVLNGTKFWITNGPDADVLVVYAKTDPSKHQHGITCFLVEKNTPGFSQSPKLDKLGMRGSNTCELVFDNCEIHESQIMGGKGKGVYVLMTGLDYERLVLSGGPLGLMQAACDIAFDYAHQRTAFGQKIGSFQLLQGKLADMYTTLNASRSYLYMVAKAADKGNVSNKDCAGVILYVAEKCTQVCLDAIQILGGNGYINDYPAGRLLRDAKLYEIGAGTSEVRRLIIGRALNKEYSN	not soluble
MNNYSGDIVFMSGGNEEDQLAQCQAYVQRHNIQQLVKEAIVVLCIHKPDNPVLFLKDHFEKLNEQRAQEGGNPDAADDDDIIVEPPKRSGGRRTGISAEPIKEDDTEYKKVVIPKDDATRRSLESAMRKNLLFAHLEEDEQKTMYDAMFPVEKSAGETIIEQGEEGDNFYVIDKGTVDVYVNHEYVLTINEGGSFGELALIYGTPRAATVIAKTDVKLWAIDRLTYRRILMGSVTKKRKMYDEFLSKVQILADLDQWERANVADALERCDFEPGTHVVEQGQPGDEFFIILEGEANVLQKRSDDAPFDVVGHLGMSDYFGEIALLLDRPRAATVVAKTHLKCIKLDRNRFERVMGPVREILKRDVSNYNSYVKLMT	soluble
SKVKVAVRIRPMNRRETDLHTKCVVDVDANKVILNPVNTNLSKGDARGQPKVFAYDHCFWSMDESVKEKYAGQDIVFKCLGENILQNAFDGYNACIFAYGQTGSGKSYTMMGTADQPGLIPRLCSGLFERTQKEENEEQSFKVEVSYMEIYNEKVRDLLDPKGSRQTLKVREHSVLGPYVDGLSKLAVTSYKDIESLMSEGNKSRTVAATNMNEESSRSHAVFKITLTHTLYDVKSGTSGEKVGKLSLVDLAGSERATKTGAAGDRLKEGSNINKSLTTLGLVISALADQSAGKNKNKFVPYRDSVLTWLLKDSLGGNSKTAMVATVSPAADNYDETLSTLRYADRAKHHHHHH	soluble
MIRVMLSQLSSVLNARLIGEDRAVSAVSTDSRAIPAEALFVALVGERFDAHDFASQAVTGGAVALLVERELDAECSQLVVADTKQALGQLGSWVHAQCQTPTVAITGSCGKTTVKEMVASILSQKGQVLYTQGNFNNDIGVPLTLLRSTTEDDYAVIELGANHVGEIAYTTALVKPDVALVNNVAAAHLEGFGSMDGVKRAKGEIYQGLQAGAVAIVNLDSNGGDYWKAVLADKTVKTFSATDHNADFYPRDVRLNALGIASFTLVTPVGEVGVELGIMGQHNVANALAAAALSLEMGASLAEIGQGLAHLSKVKGRVDMAQLRDDITLIDDSYNASVPAMKAAVELLGSFSAVRWLILGNMAELGDESLALHQQVGEHAAPFGFEFVLTYGKDAKVISDLCQGHHFATHQDMMTFIEQHIEQQQGRTQVLLVKGANSAGMSKIAAALKEKFA	not soluble
MDERTELLKRIEELEEKLRQCQQREQELEALIEEYNEVMKKQFQVFDDFFEKLGTTKMIDPLTRVYAKDHFLRLLSYQHQRAFEENTPYTIFFVKTKVSKNEREKALMKIGKILKECVRVPLDSVGRYSDDTFALFVIGVGKETAPNIEERIKNHIESIGGIEYSIAYKSYPEDFMDLEKAILDLEKAVA	not soluble
EASLTGAGATFPAPVYAKWADTYQKETGNKVNYQGIGSSGGVKQIIANTVDFGASDAPLSDEKLAQEGLFQFPTVIGGVVLAVNIPGLKSGELVLDGKTLGDIYLGKIKKWDDEAIAKLNPGLKLPSQNIAVVRRADGSGTSFVFTSYLAKVNEEWKNNVGTGSTVKWPIGLGGKGNDGIAAFVQRLPGAIGYVEYCYAKQNNLAYTKLISADGKPVSPTEENFANAAKGADWSKTFAQDLTNQKGEDAWPITSTTFILIHKDQKKPEQGTEVLKFFDWAYKTGAKQANDLDYASLPDSVVEQVRAAWKTNIKDSSGKPLY	soluble
MPVSPEREQALSEFVAAVQAREDVQSELNEITTLDQLKTIVDSIEPALTGAALIPFEQATSPPKITVDSGVLDKNIPWRLLRCPGGPLVLQMICTRVNFALWIESC	not soluble
MSLHPASANLSPSSVKNCSAKTFGFLILPNFTTIGLASAVETLRMANLAARKPLYRSVLIAADDAPVVASNGMRVLPDYNITNAPALDALLVVGANPIDRSRSNRPLIDWLRQLARQRLPLGGICTGSYLLAKAELLKGYRCTIHWEDLPTLQAHFPGIVISSQLFELDRDRYTCSGGVAAMDMMLQLVARDTGGQDIAAKAAELLLCDRVRGEREGHHHHHH	soluble
MEAVVDVVDVEEVVEDVDVVVVDQDAVAVVDLNVVVLVVELVAVLDVVLAADHAVVDVVADVVVDAVDVEVEVVSVVPFKNFELMKPIVHLGLKKDHLMTNVSPIIYSPFIYYHDS	not soluble
MGTHMYSEQGINNTINISTTSLTNATQLTVIGNNNSVYIGNNCKIVSSNIRLKGNNITLFIADDVEIMGLVCSLHSDCSLQIQAKTTMGNGEITIAEKGKISIGKDCMLAHGYEIRNTDMHPIYSLENGERINHGKDVIIGNHVWLGRNVTILKGVCIPNNVVVGSHTVLYKSFKEPNCVIAGSPAKIVKENIVWGRKMYHSTMYDDPTLNEFYK	soluble
ATTPSANQNWRLLRDESAQLRIADVLQRKEQFRPLAKRSFIFPASPQAVWLQVQLPAQKVPSWLWIFAPRVQYLDYYLVQDGQLVRDQHTGESRPFQERPLPSRSYLFSLPVDGKPMTLYVRMTSNHPLMAWFDQIDEAGLVGLE	soluble
MFWRSIPSLQTLLAAGMGLLMLEIVMAHQPAQAESCTVDPFGSEVCLPDSTPEEPDKPKRSNQSKKSNKPDKSKRMVIVPSCFGPCTQFPPAPPYRQFQEVMEEAALKATPDATPEPRPAEPLRPLWFKSDQLDDVEAETYLERTLDRNDMAQLNAVGIEADTDADGMVITVDGLSYGEVLEPHGLLFTNEVNEPGLNAWVRGFGGGSSNGAAGDRYANFSNGGSQIGFDIPINDETRIGLFGTYAVMNGTDGARGSWDSDGWGGGAYAEYWTSDFYLRGMVSAGGYDGEHRRKIDGETAKGDRSGNSWTGVLNIGAPLQSGDWIIEPQAQLSYTNTSLDKFSEHGANRRDRLRFHEMEVDQLGSELSVKFAIPIRDGERSLLLPSLRVGWAADWGMSGDHQKVSYLESGKSQRWDVNGNDDHAALVELGLDYTTFNFQDTSMGVYARGGGLLWAGNRGTSWQVQGGLNFKF	not soluble
MAHHHHHHMEEGAPTPAAPVGEDQEVAAAPATEEPASIMQVENTNFNWADDDIQFQIRQPQYAAEYPVSVLENLARNVTFKVPEDQNTMTSAIEALARERQAFEQMKRNHEDAMKSREVELNAQEATLQARERQLHANTETLAAERQQLILQQSQFRAQQAQAQAQSQAQAQTQSQPRTSSQTQSPAAQVSPSPAQAAQPAHAPQLQHQMPPPHQQPQPRSGNVYMGGGYGAQEWQPDQRTWGNEGAMGAPGFDMYQGAYPGSYAQRNYHMAGGHRGQMRSGNLPQQQFPGNRMQPMMPPPQQYSRSMAPLGAARQQQMDMNFGGRSQQSYNPAPNTGYPQRSAQW	soluble
MAHHHHHHMKRWDEKLTLALRRGSGSDDVTPNPVSEALRNLEETMESIKRRLSQLEKCVERQRVAINEVRTNTSPFDDLLTKTNGDIQSIQQQLEYVVISLERERGIVTDHTEQLRLFVRESTRRDGGRSGLSDSDPSFLFLLATWLYRPVVDFANGCYVLLSPLIGTLQSLSLFNPDVQVRQTESGVYLNNAQPSEDLLSRLQKGQLDPVLTSKT	not soluble
MSLGEQTTISDSKGLFHKEFPYVIPPVYRKVLDEYLVELNLLSNQSNFKIDTIFSYGLIISFERFTVGYEPDSHISKILESLCNSCNIDIKAIKEYSNNIKKLINEKGIKEIINILTAEIKKSVGGIALSNQSGKDKYYSRLHAIGIYELISNINEDKKEGDDKEIISECVEALGFSKDRVEKDINQYKNSMEKIKEMMELIKLTVEETKRKAKLNEGHHHHHH	soluble
